For experiment [1], the target named is SARS-CoV-2 Spike protein on transfected CHO-K1 cells (GenScript RD00819) (SARS-CoV-2, UniProt P0DTC2). As to the kind of experiment: cell-based or functional assay.
The target in experiment [2] is extracellular domain of SARS-CoV-2 S protein (S-ECD), 1-1208 aa, with two proline substitutions, GSAS … (SARS-CoV-2, Wuhan-Hu-1, UniProt P0DTC2, proline substitution at residue 986 | proline substitution at residue 987 | …). As to the kind of experiment: cryo-EM structure. The conditions noted are these: both partners purified.
The target in experiment [3] is recombinant SARS-CoV-2 Spike RBD (catalogue number not stated for this experiment) (SARS-CoV-2, UniProt P0DTC2). As to the kind of experiment: ELISA. The conditions noted are these: both partners purified. For orientation: An ELISA detects its analyte on a solid surface through an enzyme-linked reagent.
The target in experiment [4] is recombinant SARS-CoV-2 Spike S1 + S2 protein (40589-V08B1, Sino Biological) (SARS-CoV-2, Wuhan-1 (MN908947), UniProt P0DTC2). The experiment can be described thus: ELISA. The conditions noted are these: both partners purified.
Experiment [5] concerns the target SARS-CoV-2 Spike-Trimer protein (Shuimu BioSciences Ltd.) (SARS-CoV-2, Wuhan-Hu-1 assumed, UniProt P0DTC2). The experiment can be described thus: BLI. The conditions noted are these: both partners purified.

B1: CA521^FALA (human IgG4 monoclonal antibody with the F234A/L235A mutation) (antibody, V domains shown)
VH: EVQLQQWGAGLLKPSETLSLTCAVYGGSFSGYYWSWIRQPPGKGLEWIGEVNHSGSTNYNPSLKSRVTISVDTSKNQLSLKLNSVTAADTAVYYCARGNTMVRGVIIPFEYWDKGTLVTVSS
VL: EIVLTQSPATLSLSPGERATLSCRASQSVSSYLAWYQQKPGQAPRLLIYDASNRATGIPARFSGSGSGTDFTLTISSLEPEDFAVYYCQQRSNWPLTFGGGTKVEIK
notes: also called CA521^FALA IgG; full-length CA521^FALA IgG; source: Expi-CHO Expression system, purified (protein A, Q FF, Capto S ImpAct)
As a reminder, the IC50 is the point on the concentration scale where inhibition reaches its midpoint. For orientation: EC50 means the midpoint of the concentration-response curve. As a reminder, the Kd is the free concentration of one partner at which half of the binding sites on the other are occupied at equilibrium, for simple one-to-one binding. B1: the “IC50 of inhibition of SARS-CoV-2 pseudovirus transduction into Huh-7 cells” value in experiment [1] came out at 0.121 nM. In addition, in experiment [2], the binding result is recorded as “binds”. Also, the IC50 in experiment [3] amounted to 0.343 nM. For the same molecule, the EC50 in experiment [4] was 0.014 nM. In addition, the equilibrium dissociation constant (Kd) in experiment [5] was < 0.001 nM.
